Source: patent US20240309056A1 (NAVIGO PROTEINS, published 2024)

What was measured:
[1] = target: T1, ubiquitin mutein 77404; test: SPR; SEQ ID NO: 2, unmutated
T1 construct: also called Affilin-77404
Method: (§1) Purified proteins were immobilized via C-terminal Cysteine on a CM-5 sensor chip (GE Healthcare) using NHS/EDC after PDEA activation with a Biacore 3000 system (GE Healthcare). The chip was equilibrated with SPR running buffer (PBS 0.05% Tween pH 7.3). Soluble ubiquitin muteins (Affilin® proteins) applied to the chip in serial dilutions (different concentrations) with a flow rate of 30 μl/min. The association was performed for 120 seconds and the dissociation for 120 seconds. After each run, the chip surface was regenerated with 30 μl regeneration buffer (10 mM glycine pH 2.0) and equilibrated with running buffer. Affilin® proteins accumulated on the surface increasing the refractive index. This change in the refractive index was measured in real time and plotted as response or resonance units versus time.
(§2) Binding studies were carried out using the BIAcore 3000 (GE Healthcare); data evaluation was operated via the BIAevaluation 3.0 software, provided by the manufacturer, by the use of the Langmuir 1:1 model (RI=0). Evaluated dissociation constants (KD) were standardized against the immobilized protein and indicated. Shown is the change in refractive index measured in real time and plotted as response or resonance unit [RU] versus time [sec] (see Table 2).

[2] = target: T1, ubiquitin mutein 77404; test: SPR; point mutant F5E
Method: as §1, §2

[3] = target: T1, ubiquitin mutein 77404; test: SPR; point mutant K25R
Method: as §1, §2

[4] = target: T1, ubiquitin mutein 77404; test: SPR; point mutant D3F
Method: as §1, §2

[5] = target: T1, ubiquitin mutein 77404; test: SPR; point mutant M23E
Method: as §1, §2

[6] = target: T1, ubiquitin mutein 77404; test: SPR; point mutant M2K
Method: as §1, §2

[7] = target: T1, ubiquitin mutein 77404; test: SPR; point mutant A16H
Method: as §1, §2

[8] = target: T1, ubiquitin mutein 77404; test: SPR; point mutant Y8Q
Method: as §1, §2

[9] = target: T2, ubiquitin mutein 200053; test: SPR (Biacore 3000), ligand multimer immobilised, ubiquitin mutein in solution
T2 construct: also called Affilin-200053
Method: as §1, §2

[10] = target: T3, ubiquitin mutein 211883; test: as above
T3 construct: also called Affilin-211883
Method: as §1, §2

[11] = target: T1, ubiquitin mutein 77404; test: as above
Method: as §1, §2

[12] = target: T4, ubiquitin mutein 139819; test: SPR (Biacore 3000), ligand immobilised via C-terminal Cys on CM-5, ubiquitin mutein in solution, Langmuir 1:1
T4 construct: Monomer with an insertion of 6 amino acids between positions 9 and 10 of ubiquitin; also called Affilin-139819
Method: as §1, §2

[13] = target: T2, ubiquitin mutein 200053; test: as above
Method: as §1, §2

[14] = target: T3, ubiquitin mutein 211883; test: as above
Method: as §1, §2

[15] = target: T1, ubiquitin mutein 77404; test: as above
Method: as §1, §2

[16] = target: T1, ubiquitin mutein 77404; test: SPR (Biacore 3000), ligand immobilised, ubiquitin mutein in solution; Table 1 run; ligand on the chip, Affilin-77404 in solution
Method: as §1, §2

B1: SEQ ID NO: 2 (designed binder)
chain: AMDDFAQYSAWAEIEALPNLTEMQKDQFIWSLMFDPSVSKEVLGEAQKLNDSQAPK
notes: also called 187029 del2N
Kd [1]: < 0.5 nM

B2: SEQ ID NO: 2_F5E (designed binder)
chain: AMDDEAQYSAWAEIEALPNLTEMQKDQFIWSLMFDPSVSKEVLGEAQKLNDSQAPK
Kd [2]: < 0.5 nM

B3: SEQ ID NO: 2_K25R (designed binder)
chain: AMDDFAQYSAWAEIEALPNLTEMQRDQFIWSLMFDPSVSKEVLGEAQKLNDSQAPK
Kd [3]: < 0.5 nM

B4: SEQ ID NO: 2_D3F (designed binder)
chain: AMFDFAQYSAWAEIEALPNLTEMQKDQFIWSLMFDPSVSKEVLGEAQKLNDSQAPK
Kd [4]: < 0.5 nM

B5: SEQ ID NO: 2_M23E (designed binder)
chain: AMDDFAQYSAWAEIEALPNLTEEQKDQFIWSLMFDPSVSKEVLGEAQKLNDSQAPK
Kd [5]: < 0.5 nM

B6: SEQ ID NO: 2_M2K (designed binder)
chain: AKDDFAQYSAWAEIEALPNLTEMQKDQFIWSLMFDPSVSKEVLGEAQKLNDSQAPK
Kd [6]: < 0.5 nM

B7: SEQ ID NO: 2_A16H (designed binder)
chain: AMDDFAQYSAWAEIEHLPNLTEMQKDQFIWSLMFDPSVSKEVLGEAQKLNDSQAPK
Kd [7]: < 0.5 nM

B8: SEQ ID NO: 2_Y8Q (designed binder)
chain: AMDDFAQQSAWAEIEALPNLTEMQKDQFIWSLMFDPSVSKEVLGEAQKLNDSQAPK
Kd [8]: < 0.5 nM

B9: SEQ 21 tetramer (215998) (designed binder)
chain: NAARSDEAQYSAWAEIEALPNLTEMQKDQFIWSLMFDPSVSKEVLGEAQKLNDSQAPKQAPKVDAKFDQAPKVDAKFDNAARSDEAQYSAWAEIEALPNLTEMQKDQFIWSLMFDPSVSKEVLGEAQKLNDSQAPKQAPKVDAKFDQAPKVDAKFDNAARSDEAQYSAWAEIEALPNLTEMQKDQFIWSLMFDPSVSKEVLGEAQKLNDSQAPKQAPKVDAKFDQAPKVDAKFDNAARSDEAQYSAWAEIEALPNLTEMQKDQFIWSLMFDPSVSKEVLGEAQKLNDSQAPKC
Kd [9]: 8.3 nM
Kd [10]: 95.7 nM
Kd [11]: 0.05 nM

B10: SEQ1 tetramer (216001) (designed binder)
chain: NAAMDDFAQYSAWAEIEALPNLTEMQKDQFIWSLMFDPSVSKEVLGEAQKLNDSQAPKQAPKVDAKFDQAPKVDAKFDNAAMDDFAQYSAWAEIEALPNLTEMQKDQFIWSLMFDPSVSKEVLGEAQKLNDSQAPKQAPKVDAKFDQAPKVDAKFDNAAMDDFAQYSAWAEIEALPNLTEMQKDQFIWSLMFDPSVSKEVLGEAQKLNDSQAPKQAPKVDAKFDQAPKVDAKFDNAAMDDFAQYSAWAEIEALPNLTEMQKDQFIWSLMFDPSVSKEVLGEAQKLNDSQAPKC
Kd [9]: 6.5 nM
Kd [10]: 93.1 nM
Kd [11]: 0.6 nM

B11: affinity ligand 187029 (designed binder)
chain: NAAMDDFAQYSAWAEIEALPNLTEMQKDQFIWSLMFDPSVSKEVLGEAQKLNDSQAPK
notes: Artificial mosaic protein of Protein A-like structure
Kd [12]: 75.5 nM
Kd [13]: 5.9 nM
Kd [14]: 52.9 nM
Kd [15]: 1.3 nM
Kd [16]: < 0.5 nM

B12: affinity ligand 187028 (designed binder)
chain: NAARSDEAQYSAWAEIEALPNLTEMQKDQFIWSLMFDPSVSKEVLGEAQKLNDSQAPK
Kd [12]: 47.3 nM
Kd [13]: 2.5 nM
Kd [14]: 66.2 nM
Kd [15]: 0.6 nM

B13: SEQ21 dimer (215996) (designed binder)
chain: NAARSDEAQYSAWAEIEALPNLTEMQKDQFIWSLMFDPSVSKEVLGEAQKLNDSQAPKQAPKVDAKFDQAPKVDAKFDNAARSDEAQYSAWAEIEALPNLTEMQKDQFIWSLMFDPSVSKEVLGEAQKLNDSQAPKC
Kd [9]: 5.5 nM
Kd [10]: 78.1 nM
Kd [11]: 0.16 nM

B14: SEQ1 dimer (215999) (designed binder)
chain: NAAMDDFAQYSAWAEIEALPNLTEMQKDQFIWSLMFDPSVSKEVLGEAQKLNDSQAPKQAPKVDAKFDQAPKVDAKFDNAAMDDFAQYSAWAEIEALPNLTEMQKDQFIWSLMFDPSVSKEVLGEAQKLNDSQAPKC
Kd [10]: 55.6 nM
Kd [11]: 0.1 nM

B15: SEQ21 trimer (215997) (designed binder)
chain: NAARSDEAQYSAWAEIEALPNLTEMQKDQFIWSLMFDPSVSKEVLGEAQKLNDSQAPKQAPKVDAKFDQAPKVDAKFDNAARSDEAQYSAWAEIEALPNLTEMQKDQFIWSLMFDPSVSKEVLGEAQKLNDSQAPKQAPKVDAKFDQAPKVDAKFDNAARSDEAQYSAWAEIEALPNLTEMQKDQFIWSLMFDPSVSKEVLGEAQKLNDSQAPKC
Kd [9]: 8.5 nM
Kd [10]: 73.4 nM
Kd [11]: 0.4 nM

B16: SEQ1 trimer (216000) (designed binder)
chain: NAAMDDFAQYSAWAEIEALPNLTEMQKDQFIWSLMFDPSVSKEVLGEAQKLNDSQAPKQAPKVDAKFDQAPKVDAKFDNAAMDDFAQYSAWAEIEALPNLTEMQKDQFIWSLMFDPSVSKEVLGEAQKLNDSQAPKQAPKVDAKFDQAPKVDAKFDNAAMDDFAQYSAWAEIEALPNLTEMQKDQFIWSLMFDPSVSKEVLGEAQKLNDSQAPKC
Kd [9]: 6.5 nM
Kd [10]: 56.2 nM
Kd [11]: 0.3 nM
